Results as given in the nanobody polyreactivity screen of Harvey et al. (2022).

Assay: yeast display, Sf9 membrane polyspecificity reagent, FACS + sequencing; frameworks hold sequencing errors
Procedure, shortened: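 Synthetic nanobody libraries on Saccharomyces cerevisiae BJ5465 were galactose-induced for 36–48 hours, stained 1 hour at 4 °C with 10% biotinylated, detergent-solubilized Sf9 membrane reagent and enriched on streptavidin microbeads. FACS then separated cells into low and high (top ~1%) gates by anti-HA (expression) and streptavidin (reagent binding) fluorescence. Genes were colony-PCR amplified, MiSeq 2 × 250 sequenced and CDR-length filtered. A clone's polyreactivity label is that of its gate of origin.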

Row | Sequence | polyreactivity (PSR sort gate)
1 | QVQLVETGGGLVQAGGSLRLSCAASGFTFNNYAMGWYRQAPGTERELVAAISWSGGRTYYPDSVMGRFTISSDNAKNTVYLQMNSLNTEDTAVYYCAADFSGSVDYWGQGTQVTVSS | high polyreactivity
2 | QVQLVETGGGLVQAGGSLRLSCAASGFTFPYNAMGWYRQAPGKERELVAAISSTGGITYYADSVKGRFTISRDNAKNTVYLQMNSLKPEDTAVYYCGWYDYWGQGTQVTVSS | low polyreactivity
3 | QVQLVETGGGLVQAGGSLRLSCAASGGSFTYNALGWDRQSPGKERALVAAITDSGGSTFADSVKGRFTISRDIAKNNVYLQMNSLKPEDTAVYYCAAGDGDTGSMYLRKLSDYWGQGTQVTVSS | low polyreactivity
4 | QVQLVETGGGLVQAGGSLRLSCAASGITFAYNTMGWYIQAPGKERELVAGISFSGASTYYADSVKGRFTISRDYAKNTVYLQMNSLKPEDTAVYDCAAPRWVANQYREYDYWGQGTQVTVSS | high polyreactivity
5 | QVQLVETGGGLVQAGGSLRLSCAASGITFWYYAMGWYIQAPGKERELVAAITSGGSTYYADSVKGRFTISRDNAKNTVYLQMNSLKPEDTAVYYCAKDSVWGAKNLTSYKYYYWGQGTQVTVSS | low polyreactivity
6 | QVQLVETGGGLVQAGGSLRLSCAASGITITVYAMGWYRQAPGKERELVAAINSGSSTNYADSVKGRFTISRDNAKNTVYLQMNSLKTEVTAVYYCDASYRTLPDKKRYCYWGQGTQVTVSS | high polyreactivity
7 | QVQLVETGGGLVQAGGSLRLSCAASGLTFIEYAMGWYRQAPGKERELVAAISSGGRTYYADSVKGRFTISRDNAKNTVYLQMNSLKPEDTAVYYCNARGYRRWYNYWGQGTQVTVSS | high polyreactivity
8 | QVQLVETGGGLVQAGGSLRLSCAASGLTFRGYAKGWYIQAPGKERELVARITIGSSTNYADSVKGRFTISRDIAKNTVYLQMNSLKQEDSAVYYCAADKPGQFTPSYNKIYDYWGQGTQVTVSS | low polyreactivity
9 | QVQLVETGGGLVQAGGSLRLSCAASGLTFYVYAMGWYRQAPGKERELVAAISSGGRTYYADSVKGRFTISRDNAKNTVYLQMNSLKPEDTAVYYCAAVRHRNYGYWGQGTQVTVSS | high polyreactivity
10 | QVQLVETGGGLVQAGGSLRLSCAASGNTFQRYTMGWYRQAPGNERELVAAITWSGGNTYYADSVKGRFTISRDNAKNTVYLQMNSLKPVDTAVYYCNADYPTTAYDYWGQGTQVSVSS | low polyreactivity
11 | QVQLVETGGGLVQAGGSLRLSCAASGRIFDIYAMGWYRQAPGKERELVAAIDESGGSTYYADSVKGRFTISRDNAKNTVYLQMNSLKPEDTAVYYCATDDTWTISYGWYWFTYEYWGQGTQVTVSS | low polyreactivity
12 | QVQLVETGGGLVQAGGSLRLSCAASGRIFHRNAMGWYRQAPGKEREFVAGITTGSSTYYADSVKGRFTISRDNAKNTVYLQMNSLKPEDTAVYYCAARYFIGSYRPRFDYWGQGTQVTVSS | high polyreactivity
13 | QVQLVETGGGLVQAGGSLRLSCAASGRIFKVYAMGWYRQAPGKERELDAAITSRGGSTYYADSVKGRFTISRDNAKNTVYLQMNSLKPEDTAVYYCAAARGLPSNKYYYWGQGTQVTVSS | high polyreactivity
14 | QVQLVETGGGLVQAGGSLRLSCAASGRIFYYNTMGWYRQAPGKERELVAAISSTASTTYADSVKGRFTISRDNAKNTVYLQMNSLKPEDTAVYYCAADHRYHWAYPRGYYYWGQGTQVTVSS | high polyreactivity
15 | QVQLVETGGGLVQAGGSLRLSCAASGRTFAYYVMGWYRQAPGKERELVAAISSDGSTYYADSVKGRFTISRDNAKNTVNLQMNSLKPEDTAVYYCKVDVLLVHDYVFYSWMDYWGQGTQVTVSS | high polyreactivity
16 | QVQLVETGGGLVQAGGSLRLSCAASGRTFWGHAMGWYRQAPRKERELVASISSRGSSTYYADSVKGRFTISRDNAKNTVYLQMNSLKPEDTAVYYCAARTHYFPWPWYVWDYDSWGQGTQVTVSS | low polyreactivity
17 | QVQLVETGGGLVQAGGSLRLSCAASGSIFVRKAMGWYRQAPGKERELVATISYRGASTYYADSVKGRFTISRDNAKNTVYLQLNCLKPEDTAVYYCNAPRFVGLNVYGYDYWGQGTQVTLSS | high polyreactivity
18 | QVQLVETGGGLVQAGGSLRLSCAASGSIFVYHAMGGYRQAPGKETEFVAVISNSGSRTYYADSVKGRFTISRDNAKNTVYLQMNSLKPEDTAVYYCAARYYYFQRAYDYWGQGTQVTVSS | high polyreactivity
19 | QVQLVETGGGLVQAGGSLRLSCAASGSIFYYNTMGWYRQAPGKERELVAAISRSGTSTFYADSVKGRFTISRHNAKNTVYLQMNSLKPEDTAVYYCNAESLGWYRLYTVDYWGQGTQVTVSS | low polyreactivity
20 | QVQLVETGGGLVQAGGSLRLSCAASGSTFGYNGMGWYRQAPGKERELVAAISGGARTYADSVKGRFTISRDNAKNTVYLQMNSLIPEDTAVYYCAADSPVSVTADDGYWGLGTQVTVSS | low polyreactivity
21 | QVQLVETGGGLVQAGGSLRLSCAASGSTFVWYDMGRYRQAPGKERELVATITSGGITTYADSVKGRFTISRDNAKNTVYLKMNSLKPEDTAVYYCNADLYYWLRYYDRNDYLGQGTQVTVSS | low polyreactivity
22 | QVQLVETGGGLVQAGGSLRLSCAASGSTFYDNAMGWYRQAPGKERELVAAITRSGTRTYYADSVKGRFTISRDNAKNTVYLQMNSLKPEDTAVYYCNVVLYSYVTYRIITHGTYGYWGQGTQVTVSS | high polyreactivity

Row | Sequence | polyreactivity (PSR sort gate)
23 | QVQLVETGGGLVQAGGSLRLSCAASGTIFTNYTMGWYRQAPGKERELVASISWSGGRTYYADSVKGRFTISRDNAKNTVYLQMNSLKPEDTAVYYCAAVSRAPGLRYDYWGQGTQVTVSS | high polyreactivity
24 | QVQLVETGGGLVQAGGSLRLSCAASGYTLPANGKGWYRQAPGKDRELVAAISFIAGSTYYADSVNGRFTISRDNAKNTVYLQMNSLKPEDTAGYYCATQFPRSTIYDYWGQGTQVTVSS | low polyreactivity
25 | QVQLVETGGGLVQAGGSLRLSCAASVRTFHGYAMGWYRQAPGKERELVAAITCTGGRTYYADSVKGRFTISRDNAKNTVYLQMNSLKPEDTAVYYCGARPWIKSGYCGQGTQVTVSS | high polyreactivity
26 | QVQLVETGGGLVQAGGSLRLSCASSGFTLRVNDMGWYRQAPGKERELVAGITVSGGSTYYADSVKVRFTISRDNAKNTVYLQMNSLKPEDTAVYYCNADNYENATVMDYWGQGTQVTVSS | low polyreactivity
27 | QVQLVETGGGLVQAGGSLRLSCDASGRIIRWYALGWYRQAPGKERELDAAITRSGSTFYADSVKWRFTISRDNAKNTVYLQMNSLKREDTADYYCNTCRWLYDTRYQFDEFDYWGQGTQVTVSS | high polyreactivity
28 | QVQLVETGGGLVQAGGSLRLSSAASGITSNSYAMGWYRQAPGKERELVATITSGGSTNYADSVKGRFTITLDNAKNSVYLQMNSLKPEDTAVYYCNREYWLPTQYDYWGQGTQVTVSS | low polyreactivity
29 | QVQLVETGGGLVQAGGSLRLSSAASGSILEGYAMGWYRQAPGKERELVPAISRSGGSTYYADSVKGRFTISRDNAKNTVYLQMKSLKPEDTAVYYCAARYRLDGTHLTGYAYYSWGQGTQGTVSS | high polyreactivity
30 | QVQLVETGGGLVQAGGSLSLSCAASGRTCRFYAMGWYRQAPGKERELVGAISWNGGRTYYADSVKGRFTISRDNAKNSVYLQMNSLKPEDTAVYFCNARAYGSRKFEYWGQGTQVTVSS | high polyreactivity
31 | QVQLVETGGGLVQAGGSRRVSCAASGFIFWWYPMGWYRQSPGKERELVAAISGRGGSTYYADSVKRRFTISRDNAKNTVYLQMNSQKPEDTAVYYCAARLPWSYYRTQGYNYGGQGTQVTVSS | high polyreactivity
32 | QVQLVETGGGLVQAGVSLRLSSAASGLTYTQYALGWYRQAPGKERELVAAITSGGRRYYADSVKGRFTISRDNAKNTVYLQMNSLKPEDTAVYYCAVRGWCSARGMDYWGQGTQVTVSS | high polyreactivity
33 | QVQLVETGGGLVQARGSLRLSCAASGRIFRRYAMGWYRQAPGKERELVAAISSGGSTDYADSVKGRFTISRDNAKNTVYLQMNSLKPEDTAVYYCARRGPYYNVGLFDSWGQGTQVTVSS | low polyreactivity
34 | QVQLVETGGGLVQARGSLRLSCAASVRIFYYNAMGWYRQSPGKERELVAAITRSGSTNYAESVKGRFTISRDNAKNTVYLKMNSLKPEDTAVYYCAADSLKRYDYWGQGTQVTVSS | low polyreactivity
35 | QVQLVETGGGLVQARGSLRLSSAASGIIFYRYAMGWYRQAPGKETDFVAAISWSGGSTTYADSVKGRFTISRDNAKNTVYLQMNSLKPVDTAVYYCNAERKYWSLWGPAYDYWGQGTQVTVSS | high polyreactivity
36 | QVQLVETGGRIVQAGGSLRLSCAASGRIMDTNAMGWYRQAPGKEREFVAAITWIDGSTYYADSVKGRFTISRDNATNTVYLQMNSLKPEDTAVYYWNVQYTVDRYPSPPYSETGDYWGQGTQVTVSS | low polyreactivity
37 | QVQLVETRGGLLQAGGSLRLSCDASGRTFAYYAMGRYRQAPGKESELVAAITYSDGSTYYADSVKGRFTISRDNAKNTFYLQMNSLKPEDPSVYYCAKGLSREEPENDYDYWGQGTQVTVSS | low polyreactivity
38 | QVQLVETVGGLVQAGGSLRLSCAASGIIFKRYPLGGYRQAPGKERELVAAITNRGGTYYADSVKGRFTISRDNEKNSVYLQMYSLKPEDTAVYYFAARYYWIDFKFGGPRDYWGQGTQVTVSS | high polyreactivity
39 | QVQLVEYGGGLVQAGGSLRLSCAASGIIFKVYAMGWYRQAPGKEMELVAAISWSGGTTYYADSVKWRFTISRDNAKNTVYLQMNSLKPEDTAVYYCNAVVRVRFRKNDYWGQGTQVTVSS | high polyreactivity
40 | QVQLVGSGGGLVQAGGSLRLSCAASGSTFGYYAMGWYRQAPGKERELVAAITKSGGSTFYADSVKGRFTISRDNAKNTVYLQMNSLKPEDTAVYYCAARYKGQYYRQGRHDFWGQGTQVTVSS | high polyreactivity
41 | QVQLVQAGGGLVQAGGILRLSCAASGRIFRLYTMGWYRQAPGKERELVAAINSSGGNTYYADSVKGRFTISRDNAKNNVNLQMNSLKPEDTAVYYCAAGWSYPVRNIYYDWGQGTQVTVSS | high polyreactivity
42 | QVQLVQSAGGLVQAGGSLRLSCAASGSILSINGMGSYRQAPGKERELVATIDGSDGSTFYADSVKGRLTISRDNAKNTVYFQMNSLKPEDTAVYYCAAENLWQTKEYDYWGLGTQVTVSS | low polyreactivity
43 | QVQLVQSCGCLVQAGGSLRLSCAASGRIFYGNDMGWNRQAPGKERDLVAAISSGTSTNYADSVKGRFTISRDNAMNTVYLQMNSLKPEVTAVYYWAAGSYSRYLYSLYFDFDYWGQGSQVTVSS | low polyreactivity
